Measured values reported in the supplement of paper PMC9112550, “Optimization of the antimicrobial peptide Bac7 by deep mutational scanning” (BMC Biology, 2022).

These sequences were tested on Escherichia coli TOP10 (assay: shrunken log2 fold change of peptide-encoding DNA abundance (4.5 h post-induction vs induction); higher = less antimicrobial activity (less host growth inhibition)). Details: time post-induction: 4.5 h; library: site-saturation at positions 5, 18, 19, 20.
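Further: peptides expressed intracellularly from a pBAD plasmid library in pooled LB shake-flask culture, induced with 0.3% L-arabinose, DNA abundance read by NGS, three biological replicates, DESeq2 with apeglm shrinkage.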

| Sequence | shrunken log2 fold change |
| --- | --- |
| RRIRERPPRLPRPRPRPNCMPRP | -0.526 |
| RRIRFRPPRLPRPRPRPKKNPRP | 0.0769 |
| RRIRSRPPRLPRPRPRPIDHPRP | -0.273 |
| RRIRLRPPRLPRPRPRPEWTPRP | -0.019 |
| RRIRTRPPRLPRPRPRPPEDPRP | -0.0168 |
| RRIRDRPPRLPRPRPRPLAEPRP | 1.17 |
| RRIRVRPPRLPRPRPRPLYPPRP | -0.586 |
| RRIRKRPPRLPRPRPRPHLLPRP | 0.00821 |
| RRIRPRPPRLPRPRPRPNAPPRP | 0.0216 |
| RRIRCRPPRLPRPRPRPDPIPRP | -0.0573 |
| RRIRSRPPRLPRPRPRPSHRPRP | -0.41 |
| RRIRDRPPRLPRPRPRPYTSPRP | 0.0448 |
| RRIRWRPPRLPRPRPRPCETPRP | -0.0636 |
| RRIRGRPPRLPRPRPRPSIHPRP | 0.162 |
| RRIRCRPPRLPRPRPRPGDTPRP | -0.0505 |
| RRIRQRPPRLPRPRPRPLYNPRP | -0.796 |
| RRIRFRPPRLPRPRPRPDVCPRP | -0.1 |
| RRIRFRPPRLPRPRPRPTWCPRP | -0.0549 |
| RRIRPRPPRLPRPRPRPFWLPRP | 0.115 |
| RRIRERPPRLPRPRPRPHAMPRP | 0.0454 |
| RRIRERPPRLPRPRPRPHTFPRP | -0.14 |
| RRIRVRPPRLPRPRPRPATQPRP | -0.0949 |
| RRIRERPPRLPRPRPRPQDGPRP | -0.113 |
| RRIRFRPPRLPRPRPRPSMVPRP | -0.509 |
| RRIRMRPPRLPRPRPRPRNPPRP | 3.17 |

| Sequence | shrunken log2 fold change |
| --- | --- |
| RRIRRRPPRLPRPRPRPQVAPRP | 0.157 |
| RRIRNRPPRLPRPRPRPGIYPRP | -0.105 |
| RRIRFRPPRLPRPRPRPTKCPRP | 0.0225 |
| RRIRCRPPRLPRPRPRPRMAPRP | 0.331 |
| RRIRKRPPRLPRPRPRPLLCPRP | 0.347 |
| RRIRRRPPRLPRPRPRPAMPPRP | 0.396 |
| RRIRERPPRLPRPRPRPGYIPRP | -0.709 |
| RRIRVRPPRLPRPRPRPCFIPRP | -0.599 |
| RRIRRRPPRLPRPRPRPMLYPRP | -0.0417 |
| RRIRFRPPRLPRPRPRPIYAPRP | -0.143 |
| RRIRRRPPRLPRPRPRPYLPPRP | -0.456 |
| RRIRIRPPRLPRPRPRPLSHPRP | -0.0521 |
| RRIRVRPPRLPRPRPRPSYKPRP | -0.581 |
| RRIRDRPPRLPRPRPRPYLLPRP | -0.179 |
| RRIRGRPPRLPRPRPRPPQQPRP | 0.825 |
| RRIRSRPPRLPRPRPRPQEDPRP | -0.244 |
| RRIRLRPPRLPRPRPRPCDQPRP | -0.016 |
| RRIRWRPPRLPRPRPRPTHAPRP | 0.787 |
| RRIRNRPPRLPRPRPRPSRRPRP | 0.27 |
| RRIRKRPPRLPRPRPRPCDSPRP | -0.212 |
| RRIRNRPPRLPRPRPRPAEWPRP | 0.412 |
| RRIRMRPPRLPRPRPRPAVLPRP | 0.0985 |
| RRIRARPPRLPRPRPRPSVSPRP | -0.457 |
| RRIRFRPPRLPRPRPRPMRLPRP | 0.947 |
| RRIRKRPPRLPRPRPRPFYKPRP | -0.456 |

| Sequence | shrunken log2 fold change |
| --- | --- |
| RRIRHRPPRLPRPRPRPSTKPRP | -0.383 |
| RRIRGRPPRLPRPRPRPRPVPRP | 0.886 |
| RRIRRRPPRLPRPRPRPFEEPRP | 0.251 |
| RRIRDRPPRLPRPRPRPTGYPRP | 0.0485 |
| RRIRIRPPRLPRPRPRPQENPRP | -0.494 |
| RRIRGRPPRLPRPRPRPRVRPRP | 0.789 |
| RRIRERPPRLPRPRPRPFDPPRP | 0.0149 |
| RRIRRRPPRLPRPRPRPFHWPRP | -0.111 |
| RRIRSRPPRLPRPRPRPKFPPRP | 0.0385 |
| RRIRIRPPRLPRPRPRPVICPRP | -0.063 |
| RRIRWRPPRLPRPRPRPPPRPRP | 1.14 |
| RRIRSRPPRLPRPRPRPKPVPRP | 0.0648 |
| RRIRPRPPRLPRPRPRPGKFPRP | -0.385 |
| RRIRARPPRLPRPRPRPDIWPRP | 0.69 |
| RRIRPRPPRLPRPRPRPFIWPRP | -0.271 |
| RRIRSRPPRLPRPRPRPPLIPRP | 0.191 |
| RRIRIRPPRLPRPRPRPNNIPRP | -0.937 |
| RRIRNRPPRLPRPRPRPIATPRP | -0.0576 |
| RRIRNRPPRLPRPRPRPVSRPRP | -0.152 |
| RRIRKRPPRLPRPRPRPFDRPRP | 0.375 |
| RRIRLRPPRLPRPRPRPNYDPRP | -0.372 |
| RRIRDRPPRLPRPRPRPCWYPRP | -0.369 |
| RRIRCRPPRLPRPRPRPPDLPRP | -0.00662 |
| RRIRCRPPRLPRPRPRPQETPRP | 0.00739 |
| RRIRGRPPRLPRPRPRPEDSPRP | 1.39 |

| Sequence | shrunken log2 fold change |
| --- | --- |
| RRIRARPPRLPRPRPRPQAMPRP | 0.132 |
| RRIRVRPPRLPRPRPRPFEIPRP | -0.486 |
| RRIRGRPPRLPRPRPRPYVPPRP | -0.529 |
| RRIRTRPPRLPRPRPRPMDNPRP | -0.458 |
| RRIRTRPPRLPRPRPRPFKSPRP | -0.0217 |
| RRIRWRPPRLPRPRPRPAYVPRP | 0.0521 |
| RRIRMRPPRLPRPRPRPAKNPRP | 0.816 |
| RRIRMRPPRLPRPRPRPCGWPRP | 1.03 |
| RRIRHRPPRLPRPRPRPLDWPRP | 0.393 |
| RRIRNRPPRLPRPRPRPDGLPRP | 0.038 |
| RRIRCRPPRLPRPRPRPVNFPRP | -0.484 |
| RRIRGRPPRLPRPRPRPRAEPRP | 1.01 |
| RRIRTRPPRLPRPRPRPHDMPRP | 0.000904 |
| RRIRLRPPRLPRPRPRPSMMPRP | -0.358 |
| RRIRPRPPRLPRPRPRPNWVPRP | -0.2 |
| RRIRMRPPRLPRPRPRPKMTPRP | 2.7 |
| RRIRSRPPRLPRPRPRPNCCPRP | -0.105 |
| RRIRPRPPRLPRPRPRPEHIPRP | 0.149 |
| RRIRFRPPRLPRPRPRPDWHPRP | -0.152 |
| RRIRLRPPRLPRPRPRPFSPPRP | 2.3 |
| RRIRPRPPRLPRPRPRPYYRPRP | -0.178 |
| RRIRHRPPRLPRPRPRPQWPPRP | 0.112 |
| RRIRSRPPRLPRPRPRPRKVPRP | 1.58 |
| RRIRNRPPRLPRPRPRPLRDPRP | 0.521 |
| RRIRCRPPRLPRPRPRPTTFPRP | -0.635 |

| Sequence | shrunken log2 fold change |
| --- | --- |
| RRIRSRPPRLPRPRPRPITNPRP | 0.266 |
| RRIRERPPRLPRPRPRPKKMPRP | -0.478 |
| RRIRIRPPRLPRPRPRPPRIPRP | 0.333 |
| RRIRLRPPRLPRPRPRPDTRPRP | -0.278 |
| RRIRERPPRLPRPRPRPETYPRP | -0.152 |
| RRIRTRPPRLPRPRPRPHKHPRP | -0.417 |
| RRIRYRPPRLPRPRPRPWMSPRP | -0.0725 |
| RRIRTRPPRLPRPRPRPASNPRP | -0.00255 |
| RRIRTRPPRLPRPRPRPHMCPRP | -0.195 |
| RRIRCRPPRLPRPRPRPVCEPRP | 0.0301 |
| RRIRMRPPRLPRPRPRPDECPRP | 2.8 |
| RRIRQRPPRLPRPRPRPDYKPRP | -0.0788 |
| RRIRQRPPRLPRPRPRPHYGPRP | 0.0133 |
| RRIRRRPPRLPRPRPRPTFFPRP | 0.722 |
| RRIRFRPPRLPRPRPRPPQSPRP | 0.334 |
| RRIRYRPPRLPRPRPRPKPSPRP | 0.433 |
| RRIRHRPPRLPRPRPRPAAIPRP | 0.0732 |
| RRIRQRPPRLPRPRPRPKCRPRP | -0.0264 |
| RRIRWRPPRLPRPRPRPNVSPRP | -0.0556 |
| RRIRDRPPRLPRPRPRPMHTPRP | 0.0757 |
| RRIRVRPPRLPRPRPRPYKLPRP | -0.745 |
| RRIRNRPPRLPRPRPRPGRVPRP | 0.296 |
| RRIRGRPPRLPRPRPRPFSKPRP | 0.164 |
| RRIRNRPPRLPRPRPRPSIEPRP | -0.214 |
| RRIRVRPPRLPRPRPRPMRNPRP | -0.0233 |

| Sequence | shrunken log2 fold change |
| --- | --- |
| RRIRDRPPRLPRPRPRPNLLPRP | -0.0507 |
| RRIRSRPPRLPRPRPRPYVLPRP | -0.277 |
| RRIRIRPPRLPRPRPRPKQLPRP | -0.0927 |
| RRIRKRPPRLPRPRPRPPNPPRP | 0.657 |
| RRIRIRPPRLPRPRPRPKTQPRP | -0.0269 |
| RRIRHRPPRLPRPRPRPMWEPRP | -0.0441 |
| RRIRTRPPRLPRPRPRPMCGPRP | -0.171 |
| RRIRRRPPRLPRPRPRPFSHPRP | -0.0121 |
| RRIRPRPPRLPRPRPRPMRGPRP | 0.887 |
| RRIRIRPPRLPRPRPRPEPWPRP | 0.39 |
| RRIRFRPPRLPRPRPRPCKGPRP | 0.000407 |
| RRIRTRPPRLPRPRPRPFLDPRP | -0.553 |
| RRIRFRPPRLPRPRPRPPEPPRP | 0.54 |
| RRIRCRPPRLPRPRPRPMINPRP | -0.53 |
| RRIRCRPPRLPRPRPRPDPEPRP | -0.0407 |
| RRIRMRPPRLPRPRPRPRIYPRP | -0.0363 |
| RRIRVRPPRLPRPRPRPVGFPRP | 0.158 |
| RRIRERPPRLPRPRPRPDTRPRP | 0.0127 |
| RRIRLRPPRLPRPRPRPGDQPRP | 0.0619 |
| RRIRFRPPRLPRPRPRPKNVPRP | 0.04 |
| RRIRIRPPRLPRPRPRPVPYPRP | -0.556 |
| RRIRFRPPRLPRPRPRPQLVPRP | -0.117 |
| RRIRYRPPRLPRPRPRPNGRPRP | -0.311 |
| RRIRQRPPRLPRPRPRPVSLPRP | -0.131 |
| RRIRVRPPRLPRPRPRPILMPRP | -0.231 |
